One may read the Kd as the equilibrium constant for the complex coming apart. A lower Kd goes with higher affinity.

This is an account of results in publication PMC6182170.

Data set [1] deals with T1, ADR-1 WT (Caenorhabditis elegans) (UniProt Q9U3D6).
T1 sequence: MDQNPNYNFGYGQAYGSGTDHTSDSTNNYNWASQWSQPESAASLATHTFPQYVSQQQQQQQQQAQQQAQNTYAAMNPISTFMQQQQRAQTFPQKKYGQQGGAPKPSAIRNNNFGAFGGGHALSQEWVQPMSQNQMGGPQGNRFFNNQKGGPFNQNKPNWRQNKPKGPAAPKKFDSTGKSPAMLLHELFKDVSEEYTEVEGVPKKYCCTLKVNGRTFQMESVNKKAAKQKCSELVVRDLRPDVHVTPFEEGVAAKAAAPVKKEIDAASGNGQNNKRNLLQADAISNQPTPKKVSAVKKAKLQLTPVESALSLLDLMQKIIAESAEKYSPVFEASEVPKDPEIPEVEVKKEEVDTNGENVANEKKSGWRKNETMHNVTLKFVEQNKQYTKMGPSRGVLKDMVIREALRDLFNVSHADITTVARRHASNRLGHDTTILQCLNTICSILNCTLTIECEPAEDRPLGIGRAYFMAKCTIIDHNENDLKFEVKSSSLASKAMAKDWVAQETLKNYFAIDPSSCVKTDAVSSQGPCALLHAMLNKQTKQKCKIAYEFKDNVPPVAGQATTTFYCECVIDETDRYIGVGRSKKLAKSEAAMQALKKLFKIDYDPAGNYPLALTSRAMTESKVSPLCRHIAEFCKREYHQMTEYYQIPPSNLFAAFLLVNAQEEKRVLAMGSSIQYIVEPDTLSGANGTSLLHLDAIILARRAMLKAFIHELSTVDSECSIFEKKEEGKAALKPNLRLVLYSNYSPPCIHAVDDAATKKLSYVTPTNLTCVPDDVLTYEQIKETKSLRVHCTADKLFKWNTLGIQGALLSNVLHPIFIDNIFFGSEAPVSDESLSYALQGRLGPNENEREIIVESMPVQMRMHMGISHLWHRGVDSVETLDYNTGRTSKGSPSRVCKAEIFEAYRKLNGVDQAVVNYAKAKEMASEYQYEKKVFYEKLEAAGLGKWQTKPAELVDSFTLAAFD
Briefly: EMSA. The following applies: EMSA: 20 pM dsRNA, 50 mM KCl, 10 mM Tris-HCl pH 8.0, 10% glycerol, 1 mM MgCl2, 0.5 mM DTT, on ice 30 min; native 6% gel, 0.5x TBE, 4 C. In general terms: In EMSA bound probe runs differently from free probe, usually more slowly.

In data set [2] the target is ADR-2 WT (Caenorhabditis elegans) (UniProt Q22618). Briefly: EMSA. The following applies: EMSA: 20 pM dsRNA, 50 mM KCl, 10 mM Tris-HCl pH 8.0, 10% glycerol, 1 mM MgCl2, 0.5 mM DTT, on ice 30 min; native 6% gel, 0.5x TBE, 4 C.
Chain of ADR-2 WT (Caenorhabditis elegans) (Q22618 whole entry): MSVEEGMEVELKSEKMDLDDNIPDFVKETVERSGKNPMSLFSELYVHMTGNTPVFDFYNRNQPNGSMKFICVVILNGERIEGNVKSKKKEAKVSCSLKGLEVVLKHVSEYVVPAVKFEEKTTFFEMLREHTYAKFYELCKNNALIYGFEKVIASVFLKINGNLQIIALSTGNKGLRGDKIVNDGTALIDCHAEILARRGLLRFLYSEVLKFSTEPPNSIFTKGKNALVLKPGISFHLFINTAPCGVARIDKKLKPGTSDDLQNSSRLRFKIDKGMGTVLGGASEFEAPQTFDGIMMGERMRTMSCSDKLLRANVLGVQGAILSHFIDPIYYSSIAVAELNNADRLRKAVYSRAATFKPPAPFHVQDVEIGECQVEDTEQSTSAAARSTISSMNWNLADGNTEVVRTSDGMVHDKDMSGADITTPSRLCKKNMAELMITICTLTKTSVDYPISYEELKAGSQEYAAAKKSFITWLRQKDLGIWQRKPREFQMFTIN

For the sequence “UUAUUAGGUCGGCAAAUAAUUAUUGACGUGUUUUGCCAAUUAACGAUUUUUUGUAAAUUUUAUAUGUGUCUCUUACAGUAAACCGAGAGUGUAUAAAAGCAUAUGAAUAUCAGUUGCUUUGGUCAUCUGAGUAGUAAUACGAUUCGAAAAAAUCGAAAAGUUUUUUUUCCAAUUUUUUGAGUUAGCCGUGAGAGUUG / CAACUCUUCACAGCUAACUCAAAAAAUCGCGAAAAGCAUUUUUCAAAAAAUUUUUGAUUUUUUAGAUUCUUAAUACUACGCAGGUAGCCAAAGUAGCUGAUAUUUUUAUGUUUUCAUACAUUCACAUUUUACUAUAAGACACACAUACAAAAUUUACAAAAAUUGUUAAUUGACAAAAUACGUCAAUAAUUAUUUGUCUACCUAAUAA [lam-2 3'UTR 200 bp dsRNA]”, the Kd in data set [1] was determined as 0.43 nM; in data set [2] it was 76.3 nM.
